From the supplement of paper PMC12764529
± gives the half width of the 95% confidence interval.

How the values were obtained:
[1] = folding stability dG unfold from chymotrypsin proteolysis; higher = more stable
Method in brief: (§1)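 K50 was inferred by Bayesian fitting of sequencing counts obtained after protease digestion of designed mini-proteins. Unfolding free energy was derived by comparison with a sequence-predicted unfolded-state K50 and a shared folded-state K50, for each protease or both combined. The mini-proteins were under 80 residues, had no cysteine, were carried in a PA-tagged cDNA display construct, and were kept only if AlphaFold2 dimer inter-PAE exceeded 15.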

[2] = folding stability dG unfold (combined trypsin and chymotrypsin); higher = more stable
Method in brief: as §1

[3] = folding stability dG unfold from trypsin proteolysis; higher = more stable
Method in brief: as §1

Sequence | folding stability dG unfold [1] | folding stability dG unfold [2] | folding stability dG unfold [3]
SAGGSAGGSAGGPTIVLKVSPEELKALEKAGVEIEKIEKNEDGELYITLTPEALKKAGFESAGGSAGGSAGG [r7_587_TrROS_Hall] | 2.91 ± 0.057 kcal/mol | 2.97 ± 0.11 kcal/mol | 2.85 ± 0.13 kcal/mol
SAGGSAGGSPGMKPVEIPFRNPDGKNWKITSIYVMPDGPAMITIEDPNNGKERQIPAEDIDEFSAGGSAGGS [r12_488_TrROS] | 0.227 ± 0.32 kcal/mol | -0.136 ± 0.21 kcal/mol | -0.911 ± 0.58 kcal/mol
SAGGSAGGSAGGWIMVPIEIKVDLKWGPNGQHEIETVPILIIIRIPPPPVPEEQAEKNNGSAGGSAGGSAGG [r11_318_TrROS] | 2.68 ± 0.07 kcal/mol | 2.81 ± 0.19 kcal/mol | 2.89 ± 0.15 kcal/mol
SAGGSAYGYFYEYKIRFNGQDLSIALPAGDMEKLKDLPGVEIEPRRPEEPPPPPKEEERDPDGKKKSAGGSA [r15_443_TrROS] | 2.98 ± 0.071 kcal/mol | 2.8 ± 0.24 kcal/mol | 2.3 ± 0.18 kcal/mol
SAGGMPPGSFRVRARRPVPLFVRVRLPNDPDVTVTFPVTVPAELELPVNSPEALEALREAGFEIEPASAGGS [r8_482_TrMRF] | 0.114 ± 0.33 kcal/mol | 0.357 ± 0.18 kcal/mol | 0.608 ± 0.14 kcal/mol
SMMYLVNLRVEVYKDGKLVEEKEIAIAAPVEEALKIAEAIKESHPDAEVKVEIEVYEIPEDDPEFKEAFASA [r9_782_TrMRF] | 2.87 ± 0.033 kcal/mol | 2.68 ± 0.089 kcal/mol | 2.25 ± 0.082 kcal/mol
AVTVTVEPVGDALVVTVDLPRADGSPVRVVALFDPDGTVARVLVARSDPGPPRFVEVPAAPASDPVLLAAGS [r1_301_TrMRF] | 1.38 ± 0.14 kcal/mol | 0.993 ± 0.13 kcal/mol | 0.23 ± 0.2 kcal/mol
SAGGSAGGEVKTIEIEIEITDEDGRKYRIKMEAEVLPNGEIIIRMEIEDEETNETYEMTIVLKPSAGGSAGG [r6_726_TrROS_Hall] | 4.55 ± 0.12 kcal/mol | 4.35 ± 0.18 kcal/mol | 3.57 ± 0.19 kcal/mol
SAGGSAGMPSVPVERTVTVTVVDAEGNLVGTVTLTLTFPGGVSEEEREAAIAAAIEAAVPPAGVVSSAGGSA [r15_310_JUSTAS] | 2.26 ± 0.059 kcal/mol | 2.41 ± 0.076 kcal/mol | 2.56 ± 0.077 kcal/mol
KKYKVPVKEALKVAKKLIEKGYEKVKITAYLPNGEKYEIEDIKEFEEELKKKFPGIKPENLTVEIEVIPKES [r1_325_TrMRF] | 4.49 ± 0.26 kcal/mol | 4.16 ± 0.37 kcal/mol | 3.26 ± 0.15 kcal/mol
SAPLEQLLEFAEEFAQAYGYRVEIEVYRNGEPKGTYEIPMPKPGQPPVSIMIRIPDPNLYIHVTIYMPRSAG [r14_728_TrROS] | 3.07 ± 0.041 kcal/mol | 2.75 ± 0.11 kcal/mol | 2.16 ± 0.071 kcal/mol
SAGGKTIMIMFTPDNAEEIAETIVDEFGYDVKIEKVQPMPMKDPDGKQKAPYYMIEIEIKVPDPGQPLSAGG [r13_943_TrROS] | -0.282 ± 0.22 kcal/mol | 0.505 ± 0.094 kcal/mol | 0.945 ± 0.033 kcal/mol
SAGGSAGGSAGGPGWRTIEFWIPVDDFLDEIKLPPGITPIRIIKPNPNGYVRIMIIYPYSAGGSAGGSAGGS [r10_352_TrROS] | 3.05 ± 0.059 kcal/mol | 2.89 ± 0.14 kcal/mol | 2.53 ± 0.1 kcal/mol
SAGGSGIDFDIEFHNNHITIDIYMYDPNGQPIFEMTMTIPIPPVPPPPVPEVKVDDPEEAKEAKNQSAGGSA [r2_332_TrROS] | 2.35 ± 0.17 kcal/mol | 1.89 ± 0.21 kcal/mol | 0.751 ± 0.14 kcal/mol
SAGGPYMEIQFPMPEDQVRPALEKAADEWGMEVKEINYHPNNGMVTITVNDNMPPNRIRKAIEKVLKSAGGS [r8_338_TrROS] | 0.0859 ± 0.09 kcal/mol | -0.181 ± 0.15 kcal/mol | -0.784 ± 0.4 kcal/mol
SPNFRISPEIKNAIKRALKENEPGKKVEIRMRYPDGPTIMISIDKPGSINIEVEPDPGKPIMEFEFDIKDSA [r9_132_TrROS] | 0.825 ± 0.069 kcal/mol | 0.873 ± 0.16 kcal/mol | 0.732 ± 0.079 kcal/mol
SAGGSAGGMVETKLVESEELPGNRRVLTYRVTEPDSLYRVTVELTLDPSGTVLSSKTTTEPIPLSAGGSAGG [r6_20_JUSTAS] | 1.12 ± 0.093 kcal/mol | 1.04 ± 0.073 kcal/mol | 0.846 ± 0.053 kcal/mol
SASVEEVIEEAKELAKKLGAYVIVTVYKNNKKIGTYEYPSPSKNSPPTSITIESPDPNYKVKITIYPPGSAG [r14_728_JUSTAS] | 3.12 ± 0.032 kcal/mol | 2.94 ± 0.092 kcal/mol | 2.53 ± 0.062 kcal/mol
SAGKKKKYKIKIKIEISEDGTIKITIEIFDKNGKLVKKIEITIKLPKVKLSEEELKEAAKKGDLEKALKSAG [r5_944_TrROS_Hall] | 3.6 ± 0.28 kcal/mol | 2.95 ± 0.7 kcal/mol | 2.23 ± 0.28 kcal/mol
SAGGSAGGKIPPNMEIEPWRFGGKPYFLIRMPNGSYQVFEFKGDKLKIKETIPVPPGDWILIKFSAGGSAGG [r6_476_TrROS] | 1.98 ± 0.16 kcal/mol | 1.81 ± 0.14 kcal/mol | 1.48 ± 0.04 kcal/mol
SAGGKPKIRIKIEIYTPEKKETIELEFDSVEEALEALASLPGVKVEKLPDGTIYIKIPNLIIKIEIEPSAGG [r13_143_TrROS_Hall] | 3.57 ± 0.1 kcal/mol | 3.42 ± 0.3 kcal/mol | 3.19 ± 0.2 kcal/mol

Sequence | folding stability dG unfold [1] | folding stability dG unfold [2] | folding stability dG unfold [3]
SAGGSAGGSAGEEKEYRIVVPFDSDDPEAFVRAVFDGIPPDVPIKAIDFNPELGYGVVVASAGGSAGGSAGG [r11_698_TrMRF] | 1.07 ± 0.072 kcal/mol | 0.892 ± 0.11 kcal/mol | 0.364 ± 0.091 kcal/mol
SMEEIAKEIAEKAGVNWENVEFKVEEKEDPETGEKYLIAHVVIKLPNEKYIAVIDLRDKKILEIWKLEDISA [r9_1219_TrMRF] | 3.73 ± 0.063 kcal/mol | 3.61 ± 0.11 kcal/mol | 2.91 ± 0.11 kcal/mol
SAGMTTLTLSAKAPPGEAVVTLTVTLPDGTTVPLATRTVAPDEVANITVSFPSGEPIDPARLTVEVTPPSAG [r5_287_JUSTAS] | 0.137 ± 0.15 kcal/mol | 0.157 ± 0.13 kcal/mol | 0.0521 ± 0.14 kcal/mol
SAGGSAGGSAKEVIIEIKVPPNMTEDEIKELLKKKFKGKKVEIKIEKKKNKNGTLIYKVEVKSAGGSAGGSA [r18_360_TrROS_Hall] | 3.13 ± 0.12 kcal/mol | 2.73 ± 0.34 kcal/mol | 2.6 ± 0.15 kcal/mol
SAGGMPKYFAEVDTEPHGDKVKITLRIRDPNGVERELTFELPLSEVIKLLKELPEEFEVFELKFSDESAGGS [r16_298_TrMRF] | 3.12 ± 0.034 kcal/mol | 2.71 ± 0.14 kcal/mol | 2.05 ± 0.042 kcal/mol
SAGGSAGGSAGDNFKIKIESFNIMRLPDGYVMISIKIEITVGDKPVEITIMIIIPPGAPISAGGSAGGSAGG [r17_352_TrROS] | 5.74 ± 0.18 kcal/mol | 5.68 ± 0.41 kcal/mol | 4.03 ± 0.15 kcal/mol
SAGGSAGGSAGGSIVIEVDTLEEAKKLAEKLNLKVTEVKEVDGKLYVKIEIKSPEELKKSAGGSAGGSAGGS [r10_218_TrROS_Hall] | 2.002 ± 0.018 kcal/mol | 1.53 ± 0.12 kcal/mol | 0.204 ± 0.11 kcal/mol
SAKVVIIKVKSPEELKAAIEELKKKLPEGAVIYIVNEDGSVYKITFDKKTGKVKIEKVKSLEELKKLLKSAG [r14_913_TrROS_Hall] | 3.96 ± 0.086 kcal/mol | 3.47 ± 0.14 kcal/mol | 2.31 ± 0.054 kcal/mol
SAGGSAGGSAGGSSSSSITTEERPVDEDSVEKTFKFPDYYVVETLDPRTGRTSVSFIPVSAGGSAGGSAGGS [r4_99_JUSTAS] | 0.249 ± 0.041 kcal/mol | 0.533 ± 0.072 kcal/mol | 0.756 ± 0.021 kcal/mol
SKKKIEIEVIDLKTGKTETIEADTLEEALEEIKKNAPPGSTVIVRIKLPDGSVLEITLEIKPEKVTEKEKSA [r9_482_TrROS_Hall] | 1.37 ± 0.087 kcal/mol | 1.21 ± 0.22 kcal/mol | 0.956 ± 0.074 kcal/mol
SAMIVVTLTINPITGKPILIFDPGVGVYAIDPETGEPHEATVDGDTLTLNFGNRPILLTPEAVIPPEELSAG [r14_208_TrMRF] | 1.41 ± 0.079 kcal/mol | 1.21 ± 0.067 kcal/mol | 0.94 ± 0.017 kcal/mol
SAGGSLEDFELAGTFPATSEGETLLVTVWKSKEPGKYVVSAYYPSTGIPEVKVVNPEDIEEFFKNLYSAGGS [r8_469_TrMRF] | 1.95 ± 0.051 kcal/mol | 1.78 ± 0.054 kcal/mol | 1.48 ± 0.02 kcal/mol
SAGGMIRIERDGDRLTIQIPMPPGQPPTPEQVEEFARDILKKLGPDVRVKDVSHDPNGGFTIELKVPSAGGS [r8_103_TrROS] | 2.15 ± 0.051 kcal/mol | 1.81 ± 0.069 kcal/mol | 1.48 ± 0.028 kcal/mol
SAEPKRYYALVVKRPDGKWLVFYFEDVEEGRERFEEFLRKEFPEDFEVELFEVEPSEAESIEKLLEALGSAG [r14_900_TrMRF] | 4.8 ± 0.091 kcal/mol | 4.61 ± 0.17 kcal/mol | 3.07 ± 0.14 kcal/mol
SAGGSAGGELEVEIVSVEFDEETKEIRIKIYVNGKLIEEKTIKIEPVKVYYKTKDGKKVSAEDLSAGGSAGG [r6_832_TrROS_Hall] | 1.16 ± 0.26 kcal/mol | 1 ± 0.19 kcal/mol | 1.1 ± 0.089 kcal/mol
SAGGKNITIDDITFQPQRDNGKPRYYMEVKVELPNGNPIPITMPMDRMQNNGMSPKTFAKWIAKWLLSAGGS [r16_625_TrROS] | 1.5 ± 0.22 kcal/mol | 1.3 ± 0.12 kcal/mol | 1.04 ± 0.13 kcal/mol
SAGGSAGGSAGGPPLKVTEVETHKHPNGHRYVTMTLRPPNGGPVTIMFDPNNGKIQIMISAGGSAGGSAGGS [r10_1218_TrROS] | 3.35 ± 0.19 kcal/mol | 2.94 ± 0.24 kcal/mol | 2.19 ± 0.13 kcal/mol
SELVEKAAEKGVKEIHIYLSEEQREAILKAADAGVKITIHLPEGATVEELKALPGIKVDKVEVFSPEELKSA [r9_671_TrROS_Hall] | -0.078 ± 0.082 kcal/mol | 0.0735 ± 0.14 kcal/mol | 0.273 ± 0.044 kcal/mol
SAGGGMVRPSIKITKHPDTYVATVTVTHPHRPVTVTLPFSSEPEAISEAEKIVEELIATPVPSPAGASAGGS [r16_24_JUSTAS] | 0.831 ± 0.072 kcal/mol | 0.841 ± 0.11 kcal/mol | 0.775 ± 0.037 kcal/mol
SAGGEEELRKAAEIAAAPPLEIEPVLETFTVETEEGPRVVLVISPVVRFPGDGVLIPNPVLVIPAEELSAGG [r19_11_TrMRF] | 0.301 ± 0.11 kcal/mol | 0.699 ± 0.11 kcal/mol | 0.861 ± 0.052 kcal/mol
SAGGSAGGSASMKVLEFPPDASIEEILEKIEKELGLSKEEIKNIKIEKIDDEEGSYKVIIESAGGSAGGSAG [r3_26_JUSTAS] | 2.62 ± 0.054 kcal/mol | 2.59 ± 0.07 kcal/mol | 2.42 ± 0.062 kcal/mol
